Laboratory results: patent publication US20250326861A1 (REGENXBIO, published 2025)

Biological target: Activated human plasma kallikrein (Enzyme Research Laboratories) (human, UniProt P03952 20-638)
Assay: cell-based or functional assay

Sequence of Activated human plasma kallikrein (Enzyme Research Laboratories) (P03952 20-638 limits assumed): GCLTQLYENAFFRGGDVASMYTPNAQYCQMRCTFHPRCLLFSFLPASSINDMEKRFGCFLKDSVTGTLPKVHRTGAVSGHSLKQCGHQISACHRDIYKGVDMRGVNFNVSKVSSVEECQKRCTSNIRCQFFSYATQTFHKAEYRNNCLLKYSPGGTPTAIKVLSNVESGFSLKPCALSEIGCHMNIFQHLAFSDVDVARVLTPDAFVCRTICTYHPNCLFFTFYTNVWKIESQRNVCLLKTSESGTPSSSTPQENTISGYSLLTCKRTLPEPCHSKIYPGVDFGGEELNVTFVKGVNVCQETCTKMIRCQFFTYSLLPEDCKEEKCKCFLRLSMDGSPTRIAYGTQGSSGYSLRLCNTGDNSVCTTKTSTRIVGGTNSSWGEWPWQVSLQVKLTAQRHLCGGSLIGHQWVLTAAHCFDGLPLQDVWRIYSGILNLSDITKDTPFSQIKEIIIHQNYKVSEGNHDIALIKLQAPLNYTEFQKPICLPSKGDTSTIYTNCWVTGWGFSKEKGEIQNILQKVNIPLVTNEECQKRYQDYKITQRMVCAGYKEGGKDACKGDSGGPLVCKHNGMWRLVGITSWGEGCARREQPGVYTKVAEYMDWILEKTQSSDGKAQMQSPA

B1: Lanadelumab (full length anti-pKal antibody) (antibody, IgG1, V domains shown)
VH: EVQLLESGGGLVQPGGSLRLSCAASGFTFSHYIMMWVRQAPGKGLEWVSGIYSSGGITVYADSVKGRFTISRDNSKNTLYLQMNSLRAEDTAVYYCAYRRIGVPRRDEFDIWGQGTMVTVSS
VL: DIQMTQSPSTLSASVGDRVTITCRASQSISSWLAWYQQKPGKAPKLLIYKASTLESGVPSRFSGSGSGTEFTLTISSLQPDDFATYYCQQYNTYWTFGQGTKVEIK
IC50 (read off the curve), 6.25 nM pKal: ~2 nM
IC50 (read off the curve), 12.5 nM pKal: ~4 nM
